{"source": "the RNAGym collection of RNA variant scans (doi:10.7554/elife.80360)", "parents": {"B1": {"name": "Hairpin Ribozyme (parent)", "chain": "GUCCUCUUUCACGUGCGCGUGAAAGAGAGAAGUGAACCAGAGAAACACACGUUGUGGUAUAUUACCUGGUA"}}}
{"variants_of": "B1", "assay": "self-cleavage, relative activity (ratio to wild type); higher = more cleavage; co-transcriptional"}
{"variant": "A36G C48A", "self-cleavage": 0.196}
{"variant": "A36G C48U", "self-cleavage": 0.228}
{"variant": "G34U A61C", "self-cleavage": 1.2}
{"variant": "G34U A61G", "self-cleavage": 0.636}
{"variant": "A35G A61G", "self-cleavage": 0.185}
{"variant": "A36C A59U", "self-cleavage": 0.157}
{"variant": "G34C A39C", "self-cleavage": 0.9}
{"variant": "A36U G54U", "self-cleavage": 0.325}
{"variant": "A36U", "self-cleavage": 0.602}
{"variant": "A36G", "self-cleavage": 1.03}
{"variant": "A36C", "self-cleavage": 0.659}
{"variant": "A36G C46G", "self-cleavage": 0.178}
{"variant": "A36C C38U", "self-cleavage": 0.274}
{"variant": "A36C C38A", "self-cleavage": 0.253}
{"variant": "A36C C38G", "self-cleavage": 0.117}
{"variant": "G34C U63A", "self-cleavage": 0.293}
{"variant": "G34C U63G", "self-cleavage": 0.262}
{"variant": "A35C U67G", "self-cleavage": 0.278}
{"variant": "C37A C46U", "self-cleavage": 0.0922}
{"variant": "G34A A45C", "self-cleavage": 0.202}
{"variant": "A35C", "self-cleavage": 1.02}
{"variant": "A35U", "self-cleavage": 0.811}
{"variant": "A35G", "self-cleavage": 0.931}
{"variant": "C37A A43G", "self-cleavage": 0.0981}
{"variant": "G34U G57A", "self-cleavage": 0.887}
{"variant": "G34U G57C", "self-cleavage": 0.552}
{"variant": "G34C G51A", "self-cleavage": 1.61}
{"variant": "A35U U70G", "self-cleavage": 0.874}
{"variant": "A36U G42A", "self-cleavage": 0.115}
{"variant": "G34U A47C", "self-cleavage": 1.2}
{"variant": "A36C U58G", "self-cleavage": 0.595}
{"variant": "A36G A71U", "self-cleavage": 1.04}
{"variant": "A36G A44U", "self-cleavage": 0.0711}
{"variant": "A35U G56U", "self-cleavage": 0.221}
{"variant": "A35U G56A", "self-cleavage": 0.143}
{"variant": "A36U A39G", "self-cleavage": 0.344}
{"variant": "A35C G40U", "self-cleavage": 0.149}
{"variant": "A36G U52G", "self-cleavage": 0.882}
{"variant": "A35U G54C", "self-cleavage": 0.0851}
{"variant": "A35U G54A", "self-cleavage": 0.197}
{"variant": "G34U C48U", "self-cleavage": 0.695}
{"variant": "A35U G57C", "self-cleavage": 0.116}
{"variant": "A35U G57U", "self-cleavage": 0.311}
{"variant": "G34C A71C", "self-cleavage": 1.76}
{"variant": "G34U A35C", "self-cleavage": 1.2}
{"variant": "G34U A35G", "self-cleavage": 1.47}
{"variant": "A35U U60G", "self-cleavage": 0.343}
{"variant": "A35U A36G", "self-cleavage": 0.901}
{"variant": "A35U A36C", "self-cleavage": 0.264}
{"variant": "A36G U67G", "self-cleavage": 0.19}
{"variant": "G34C C66A", "self-cleavage": 0.693}
{"variant": "A35C G69U", "self-cleavage": 0.189}
{"variant": "A36G U53C", "self-cleavage": 1.08}
{"variant": "A36C C50G", "self-cleavage": 0.131}
{"variant": "A36C C50A", "self-cleavage": 0.0511}
{"variant": "A35G A64C", "self-cleavage": 0.174}
{"variant": "A36C C46A", "self-cleavage": 0.026}
{"variant": "A35C G42A", "self-cleavage": 0.129}
{"variant": "A35C G42U", "self-cleavage": 0.342}
{"variant": "A35U U53A", "self-cleavage": 0.785}
{"variant": "G34A U52A", "self-cleavage": 1.31}
{"variant": "G34U C37U", "self-cleavage": 1.59}
{"variant": "G34C G68C", "self-cleavage": 0.484}
{"variant": "A35U A45G", "self-cleavage": 0.0965}
{"variant": "A35U A45C", "self-cleavage": 0.112}
{"variant": "G34C G42U", "self-cleavage": 1.19}
{"variant": "A36C A47C", "self-cleavage": 0.262}
{"variant": "A36C A47U", "self-cleavage": 0.29}
{"variant": "A35C G68U", "self-cleavage": 0.226}
{"variant": "A35C G54U", "self-cleavage": 0.56}
{"variant": "A35C G54A", "self-cleavage": 0.483}
{"variant": "A35G U63G", "self-cleavage": 0.221}
{"variant": "A35G U63C", "self-cleavage": 0.233}
{"variant": "A35G U63A", "self-cleavage": 0.232}
{"variant": "A35C U60G", "self-cleavage": 0.649}
{"variant": "A35C U60A", "self-cleavage": 0.664}
{"variant": "A35C U60C", "self-cleavage": 1.14}
{"variant": "C37A A41C", "self-cleavage": 0.365}
{"variant": "C37A A41U", "self-cleavage": 0.429}
{"variant": "A36G A64G", "self-cleavage": 0.492}
{"variant": "A36G A64U", "self-cleavage": 0.138}
{"variant": "A35G C65A", "self-cleavage": 0.867}
{"variant": "A35U A44C", "self-cleavage": 0.267}
